Data published in the supplement of paper PMC10567573.

B1: MMP1 (parent)
chain: FHGTRQYKFDPKTKRILTLQKANS
B2: SNX8 (parent)
chain: LHQETQLIHVYLPLTSHILRAFVN

Variants of: B1
Assay: protein stability index of a GFP-peptide fusion (GPS, HEK-293T) (PSI 1-6); higher = more stable
Details: c terminus: a fixed tail appended
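Also: lentivirally expressed fusions sorted by FACS into six bins by GFP to DsRed ratio, PSI derived from sequencing read proportions per bin multiplied by bin number.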

Protein stability index, by site and new letter:
S24: T 1.65 | H 2.58 | C 2.01 | E 1.79 | Y 1.67 | D 1.77 | F 1.59 | N 2.16 | G 2.03 | I 2.09 | K 1.84 | L 1.76 | R 1.3 | V 1.79 | Q 2.07 | A 1.6 | M 1.85 | P 2.08
N23: R 2.38 | V 2.08 | L 2.08 | M 1.8 | T 1.29 | S 1.93 | K 3.21 | Q 1.85 | P 1.67 | Y 2.1 | W 1.51

Variants of: B2
Assay: as above
Details: c terminus: a fixed tail appended

Protein stability index, by site and new letter:
R20: A 3.61
H9: A 2.16 | M 2.9 | C 3.65 | N 2.43 | Y 3.11 | W 2.31 | V 3.08 | K 1.43 | L 3.18 | P 2.22 | E 1.65 | T 2.96 | G 3.08 | I 2.82 | S 2.4
T5: A 2.03 | M 2.39 | E 1.98 | L 3.03 | G 2.26 | Y 1.85 | D 1.78 | F 2.83 | C 3.39 | N 3.51 | V 4.08 | I 3.8 | W 2.22 | R 2.75 | P 1.66 | H 2.17
E4: L 2.8 | H 1.82 | W 1.8 | R 2.25 | M 2.04 | I 2.46 | C 1.83 | N 3.07 | A 1.83 | T 1.4 | P 2.18 | V 3.22 | K 4.66 | Q 3.2 | Y 2.38 | F 2.34 | G 2.64
Q3: M 2.15 | Y 3.12 | F 3.79 | P 2.31 | R 2.48 | A 3.04 | C 2.06 | E 2.55 | S 3.32 | I 3.42 | V 2.47 | D 2.8 | G 2.67 | H 2.62 | L 2.24 | W 2.73 | K 4.06 | N 2.96
L1: V 2.64 | F 3.82 | Q 2.18 | D 3.07 | N 2.75 | H 1.85 | P 3.01 | R 2.06 | A 2.75 | T 3.62 | E 3.18 | I 2.88 | K 3.1
L7: I 2.73 | A 2.53 | D 2.17 | M 2.9 | R 4 | E 1.87 | N 2.1 | T 3.64 | K 2.32 | Y 1.91 | Q 2.71 | G 2.15 | H 1.98 | P 3.31 | C 2.44 | S 2.37
H17: N 2.47 | C 1.58 | R 2.42 | T 1.85 | V 1.92 | S 3.54 | Y 2.6 | L 1.69 | A 2.06 | W 3.19 | G 1.77 | Q 2.97 | E 2.75 | I 2.46 | F 3.82 | M 2.52 | P 2.34 | D 2.58
Y11: N 2.81 | D 1.47 | V 1.99 | T 1.89 | Q 3.1 | G 2.29 | L 2.05 | S 1.91 | K 2.95 | F 2.14 | C 3.22 | R 1.86 | M 3.64 | P 2.78 | A 2.63
Q6: N 1.6 | C 2.63 | R 3.29 | K 1.7 | W 3.31 | V 3.73 | S 2.04 | I 2.75 | L 3.52 | F 2.33 | H 2.75 | E 2.88 | G 2.55 | M 2.2 | P 2.41 | D 2.01
I8: R 1.78 | F 2.5 | V 1.45 | E 2.44 | Y 4.04 | K 2.3 | W 2.6 | Q 1.68 | G 1.42 | N 2.09 | S 2.03 | D 2.22 | P 1.65 | C 2.87 | T 2.1 | M 3.01 | L 1.67 | A 2.03
T15: I 2.85 | Y 1.79 | D 3.4 | A 2.23 | V 4.03 | P 2.3 | C 2.46 | G 1.2 | L 1.86 | H 3.58 | K 3.35 | N 3.74 | Q 1.75 | F 1.58 | R 2.25 | W 2.9 | M 1.58
L14: V 3.59 | C 3.23 | N 4.27 | P 2.64 | A 2.98 | F 1.31 | Q 3.75 | K 3.14 | S 2 | G 3.49 | T 2.29 | D 2.72 | H 2.13 | Y 1.58 | W 1.8 | M 2.41 | R 2.49
S16: E 2.16 | W 2.31 | M 2 | K 2.77 | Q 2.5 | Y 2.08 | I 1.47 | C 2.36 | R 2.83 | H 1.82 | L 2.08 | A 1.94 | V 1.81 | N 2.52
P13: K 1.72 | S 3 | Q 2.68 | M 2.55 | I 1.9 | A 3.59 | R 2.29 | L 3.99 | T 2.91 | Y 1.95 | V 1.85 | D 2.7 | W 3.14 | H 1.38
H2: P 2.04 | D 3.62 | R 1.82 | N 2.5 | F 2.04 | W 3.21 | Q 2.5 | L 1.83 | T 1.68 | G 2.72 | Y 2.96 | V 2.6 | S 2.03
I18: W 2.33 | M 1.88 | A 1.85 | P 3.99 | S 3.95 | D 2.65 | H 2.63 | T 2.89 | L 3.11 | R 2.44 | Y 2.39 | F 1.93 | V 3.55 | C 3.75 | G 1.71 | N 1.79 | Q 2.27 | K 1.97
L12: W 3.2 | Y 3.18 | G 3.44 | N 2.08 | C 2.52 | M 2.71 | Q 3.42 | V 1.91 | E 1.83 | P 2.21 | D 2.19 | T 2.49 | F 2.58 | H 3.23 | S 1.7 | R 2.48 | K 2.29
L19: S 2.3 | W 1.57 | Y 3.67 | V 4.01 | A 2.99 | P 3.45 | C 2.66 | F 3.61 | D 1.52 | E 2.23 | T 1.84 | G 3.75 | K 2.47 | Q 5.08 | I 3.22 | N 1.99 | H 2.24
V10: N 1.88 | A 1.19 | H 1.66 | Q 1.71 | D 1.87 | W 2.2 | R 2.21 | S 2.33 | E 2.87 | G 1.51 | Y 2.24 | P 1.76 | T 1.73 | K 1.23 | M 2.22
